Assay results published in paper PMC5080453, “Structural characterization of twisted gastrulation provides insights into opposing functions on the BMP signalling pathway” (Matrix Biology, 2016).

T1: ΔN-chordin (human chordin construct lacking the N-terminal part) (human, UniProt Q9H2X0 129-955)
T1 construct: chordin, human, ΔN-chordin: partially cleaved chordin fragment lacking the N-terminus and containing the C-terminal vWC domains; source: HEK 293-EBNA cells, as previously described [13]
T1 sequence (looked up): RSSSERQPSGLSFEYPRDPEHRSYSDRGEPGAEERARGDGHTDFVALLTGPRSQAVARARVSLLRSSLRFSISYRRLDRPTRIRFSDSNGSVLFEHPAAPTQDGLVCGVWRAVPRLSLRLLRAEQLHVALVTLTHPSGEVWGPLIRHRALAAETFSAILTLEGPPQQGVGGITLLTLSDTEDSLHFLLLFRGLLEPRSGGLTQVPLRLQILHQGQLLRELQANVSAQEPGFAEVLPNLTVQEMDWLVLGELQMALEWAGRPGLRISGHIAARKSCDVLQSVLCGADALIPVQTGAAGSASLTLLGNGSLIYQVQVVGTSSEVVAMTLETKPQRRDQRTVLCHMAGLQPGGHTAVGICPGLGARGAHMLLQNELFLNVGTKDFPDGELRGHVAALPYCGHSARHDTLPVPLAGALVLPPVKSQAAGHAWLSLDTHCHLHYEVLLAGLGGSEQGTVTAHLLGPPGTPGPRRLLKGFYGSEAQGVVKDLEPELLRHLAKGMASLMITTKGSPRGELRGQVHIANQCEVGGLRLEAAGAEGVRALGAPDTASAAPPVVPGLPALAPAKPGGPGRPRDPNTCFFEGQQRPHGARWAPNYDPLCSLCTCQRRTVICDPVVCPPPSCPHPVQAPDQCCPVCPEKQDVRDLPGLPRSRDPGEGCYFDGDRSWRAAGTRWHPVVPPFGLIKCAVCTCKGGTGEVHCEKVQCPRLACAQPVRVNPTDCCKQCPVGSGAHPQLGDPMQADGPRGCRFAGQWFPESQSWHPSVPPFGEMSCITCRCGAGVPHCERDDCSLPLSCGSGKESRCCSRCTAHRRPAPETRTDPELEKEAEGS

B1: human twisted gastrulation (Tsg), native (glycosylated) (natural protein, UniProt Q9GZX9 26-223, looked up)
chain: CNKALCASDVSKCLIQELCQCRPGEGNCSCCKECMLCLGALWDECCDCVGMCNPRNYSDTPPTSKSTVEELHEPIPSLFRALTEGDTQLNWNIVSFPVAEELSHHENLVSFLETVNQPHHQNVSVPSNNVHAPYSSDKEHMCTVVYFDDCMSIHQCKISCESMGASKYRWFHNACCECIGPECIDYGSKTVKCMNCMF
modifications: N-linked glycans (three predicted N-linked glycosylation sites)
notes: twisted gastrulation (Tsg), human, generated by PCR from image clone Q9GZX9; a thrombin cleavage site stands before the C-terminal His6 tag; For MST it was labelled with NT647 (Red-NHS kit); Monomer by MALS, AUC and SAXS; also called native Tsg
B2: chordin vWC2–3 (residues 701–860) (domain or fragment, human, UniProt Q9H2X0 701-860, looked up)
chain: DPNTCFFEGQQRPHGARWAPNYDPLCSLCTCQRRTVICDPVVCPPPSCPHPVQAPDQCCPVCPEKQDVRDLPGLPRSRDPGEGCYFDGDRSWRAAGTRWHPVVPPFGLIKCAVCTCKGGTGEVHCEKVQCPRLACAQPVRVNPTDCCKQCPVGSGAHPQL
notes: chordin, human, vWC2–3, residues 701–860, generated by PCR from full-length human chordin; thrombin cleavage site before the C-terminal His6 tag
B3: chordin vWC1 (residues 50–128) (domain or fragment, human, UniProt Q9H2X0 50-128, looked up)
chain: GCTFGGKVYALDETWHPDLGEPFGVMRCVLCACEAPQWGRRTRGPGRVSCKNIKPECPTPACGQPRQLPGHCCQTCPQE
notes: chordin, human, vWC1, residues 50–128, generated by PCR from full-length human chordin; thrombin cleavage site before the C-terminal His6 tag

Legend:
Conditions in all cases: both partners purified
[1] = target: T1, ΔN-chordin (human chordin construct …); experiment: SPR; ProteOn XPR36, GLC chip; Tsg immobilised by amine coupling (300 RU for ΔN-chordin and vWC2–3, 800 RU for vWC1-4CHRD and vWC1); chordin constructs injected at increasing concentrations; 25 °C, 10 mM HEPES, 150 mM NaCl, 3 mM EDTA, 0.05% Tween-20, pH 7.4, 50 μl/min; ΔN-chordin fitted to a 1:1 Langmuir model, vWC2–3 by equilibrium analysis; triplicate
[2] = target: B1; experiment: as above
[3] = target: B1; experiment: MST; 15 nM NT647-labelled Tsg mixed with serial dilutions of vWC1 from 7 μM; 50 mM Tris, 150 mM NaCl, 10 mM MgCl2, 0.05% Tween-20, pH 7.4; Monolith NT.115Pico, 20% LED, 20% MST power; triplicate

Binder: B1
- Kd [1]: 3.08 nM

Binder: B2
- Kd [2]: 26.4 nM

Binder: B3
- Kd [3]: 322 nM
